Test results published in PMC9010765.

How the values were obtained:
[1] = target: human myeloperoxidase (human); assay: SPR; BIAcore 3000; MPO immobilised on a CM5 chip through primary amino groups; apoA-I 0.5 nM to ~3000 nM flowed over at 20 uL/min in 10 mM PBS, pH 7.4; fit to 1:1 binding with a drifting baseline; apparent KD
[2] = target: human myeloperoxidase (human) (UniProt P05164); assay: SPR; BIAcore 3000; MPO immobilised on a CM5 chip through primary amino groups; lipid-poor apoA-I 0.5 nM to 3 uM flowed over at 20 ul/min in 10 mM PBS pH 7.4; 1:1 binding with drifting baseline model; apparent KD

human myeloperoxidase (human), sequence (P05164 165-745): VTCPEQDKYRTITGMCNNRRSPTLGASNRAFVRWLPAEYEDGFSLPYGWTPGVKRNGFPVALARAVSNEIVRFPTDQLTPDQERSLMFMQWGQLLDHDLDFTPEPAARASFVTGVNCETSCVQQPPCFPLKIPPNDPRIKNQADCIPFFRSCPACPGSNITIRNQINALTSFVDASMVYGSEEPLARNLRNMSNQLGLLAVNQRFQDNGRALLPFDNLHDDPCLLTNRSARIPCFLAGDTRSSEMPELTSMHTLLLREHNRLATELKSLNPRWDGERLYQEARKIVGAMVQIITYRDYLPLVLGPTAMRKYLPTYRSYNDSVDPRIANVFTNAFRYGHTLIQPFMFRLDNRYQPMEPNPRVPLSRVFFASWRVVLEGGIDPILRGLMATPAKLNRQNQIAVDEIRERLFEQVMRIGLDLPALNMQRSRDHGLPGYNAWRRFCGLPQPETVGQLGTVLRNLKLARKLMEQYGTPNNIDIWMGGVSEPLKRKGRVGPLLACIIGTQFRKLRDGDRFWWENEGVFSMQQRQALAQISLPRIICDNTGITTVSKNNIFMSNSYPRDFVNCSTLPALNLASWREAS

Substance: recombinant human apolipoprotein A-I, lipid-poor (from UniProt P02647 19-267) (natural protein)
- Kd [1]: 75.1 nM
- koff [1]: 0.00377 s⁻¹
- kon [1]: 50200 M⁻¹ s⁻¹
- Kd [2]: 75 nM
